To fix the notation:
T1: natriuretic peptide receptor-B (human)
T1 chain: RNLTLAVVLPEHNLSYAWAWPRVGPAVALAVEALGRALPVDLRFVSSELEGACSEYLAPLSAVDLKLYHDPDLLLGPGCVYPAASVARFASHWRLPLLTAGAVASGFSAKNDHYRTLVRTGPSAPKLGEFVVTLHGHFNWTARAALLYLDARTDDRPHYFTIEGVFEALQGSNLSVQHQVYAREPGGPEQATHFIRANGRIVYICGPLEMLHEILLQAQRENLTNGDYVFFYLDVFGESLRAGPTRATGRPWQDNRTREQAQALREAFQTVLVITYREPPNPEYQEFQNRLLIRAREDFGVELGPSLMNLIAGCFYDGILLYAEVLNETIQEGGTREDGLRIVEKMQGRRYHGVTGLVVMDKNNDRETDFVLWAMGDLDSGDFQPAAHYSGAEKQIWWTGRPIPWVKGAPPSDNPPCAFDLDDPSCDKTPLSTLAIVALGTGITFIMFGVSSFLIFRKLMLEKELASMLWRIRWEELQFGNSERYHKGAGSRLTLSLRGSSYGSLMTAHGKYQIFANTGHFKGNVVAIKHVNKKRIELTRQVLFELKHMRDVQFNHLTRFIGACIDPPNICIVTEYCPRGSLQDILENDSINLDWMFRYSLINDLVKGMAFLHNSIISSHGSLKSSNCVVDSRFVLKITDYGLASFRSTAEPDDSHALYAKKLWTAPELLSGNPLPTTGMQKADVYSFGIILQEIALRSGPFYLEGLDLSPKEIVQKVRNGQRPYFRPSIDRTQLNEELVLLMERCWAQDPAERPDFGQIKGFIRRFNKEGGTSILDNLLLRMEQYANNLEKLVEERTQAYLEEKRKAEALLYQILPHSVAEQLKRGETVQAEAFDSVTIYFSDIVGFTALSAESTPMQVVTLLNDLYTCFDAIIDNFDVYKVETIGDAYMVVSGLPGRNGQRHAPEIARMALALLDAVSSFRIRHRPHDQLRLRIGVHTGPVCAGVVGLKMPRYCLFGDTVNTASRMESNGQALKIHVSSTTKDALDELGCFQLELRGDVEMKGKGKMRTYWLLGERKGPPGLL

B1: JAL-1921 (peptide)
peptide: [Occ][Sni]F[orn(Me2)]L[Hyp][NMeL]SRI-NH2
modifications: reading uncertain; also: printed as Occ-Sni-Phe-orn(Me2)-Leu-Hyp-Nml-Ser-Arg-Ile-NH2
B2: JAL-0749 (peptide)
peptide: Octanoyl-[dA][dA]FGLKLDR[3816]
modifications: reading uncertain; also: printed as Occ-ala-ala-Phe-Gly-Leu-Lys-Leu-Asp-Arg-3816
B3: JAL-1918 (peptide)
peptide: [Occ][Sni]F[orn(Me2)]L[Hyp][NMeL][pT]R[Che]
modifications: reading uncertain; also: printed as Occ-Sni-Phe-orn(Me2)-Leu-Hyp-Nml-Pth-Arg-Che
B4: JAL-1923 (peptide)
peptide: [Occ][Sni]F[orn(Me2)]L[Hyp][NMeL][Cya]RI-NH2
modifications: reading uncertain; also: printed as Occ-Sni-Phe-orn(Me2)-Leu-Hyp-Nml-Cya-Arg-Ile-NH2
B5: JAL-1898 (peptide)
peptide: H-K[Aoc(2)][Sni]FLL[Hyp][NMeL]DRI-NH2
modifications: not fully specified (residue 5); printed as H-Lys-Hgl-Sni-Phe-leu-Leu-Hyp-Nml-Asp-Arg-Ile-NH2
B6: JAL-1917 (peptide)
peptide: Octanoyl-[Sni]FLL[Hyp][NMeL][pS]R[Che]
modifications: not fully specified (some residues); printed as Occ-Sni-Phe-leu-Leu-Hyp-Nml-Pse-Arg-Che; reading uncertain
B7: JAL-1924 (peptide)
peptide: [Occ][Sni]F[orn(Me2)]L[Hyp][NMeL]TRI-NH2
modifications: reading uncertain; also: printed as Occ-Sni-Phe-orn(Me2)-Leu-Hyp-Nml-Thr-Arg-Ile-NH2
B8: JAL-1916 (peptide)
peptide: [Occ][Sni]F[orn(Me2)]L[Hyp][NMeL][pS]R[Che]
modifications: reading uncertain; also: printed as Occ-Sni-Phe-orn(Me2)-Leu-Hyp-Nml-Pse-Arg-Che
B9: JAL-0748 (peptide)
peptide: Octanoyl-[dA][dA]FGLKLDR[2137]
modifications: reading uncertain; also: printed as Occ-ala-ala-Phe-Gly-Leu-Lys-Leu-Asp-Arg-2137
B10: JAL-1899 (peptide)
peptide: H-K[dHgl][Sni]FLL[Hyp][NMeL]DRI-NH2
modifications: not fully specified (residue 5); printed as H-Lys-hgl-Sni-Phe-leu-Leu-Hyp-Nml-Asp-Arg-Ile-NH2; reading uncertain
B11: JAL-1907 (peptide)
peptide: [NHexGly][Sni]FLL[Hyp][NMeL]DRI-NH2
modifications: not fully specified (residue 4); printed as (1625-Ac)-Sni-Phe-leu-Leu-Hyp-Nml-Asp-Arg-Ile-NH2
B12: JAL-1912 (peptide)
peptide: Octanoyl-[Sni]FLL[Hyp][NMeL][pS]RI-NH2
modifications: not fully specified (some residues); printed as Occ-Sni-Phe-leu-Leu-Hyp-Nml-Pse-Arg-Ile-NH2
B13: JAL-1896 (peptide)
peptide: H-[Aoc(2)][Sni]FLL[Hyp][NMeL]DRI-NH2
modifications: not fully specified (residue 4); printed as H-Hgl-Sni-Phe-leu-Leu-Hyp-Nml-Asp-Arg-Ile-NH2
B14: JAL-1895 (peptide)
peptide: [Occ][Sni]F[orn(Me2)]L[Hyp][NMeL]TR[Che]
modifications: reading uncertain; also: printed as Occ-Sni-Phe-orn(Me2)-Leu-Hyp-Nml-Thr-Arg-Che
B15: JAL-1897 (peptide)
peptide: H-[dHgl][Sni]FLL[Hyp][NMeL]DRI-NH2
modifications: not fully specified (residue 4); printed as H-hgl-Sni-Phe-leu-Leu-Hyp-Nml-Asp-Arg-Ile-NH2; reading uncertain
B16: JAL-1894 (peptide)
peptide: [Occ][Sni]F[orn(Me2)]L[Hyp][NMeL]SR[Che]
modifications: reading uncertain; also: printed as Occ-Sni-Phe-orn(Me2)-Leu-Hyp-Nml-Ser-Arg-Che
B17: JAL-1901 (peptide)
peptide: [2857‑Ac][Aoc(2)][Sni]FLL[Hyp][NMeL]DRI-NH2
modifications: not fully specified (residue 5); printed as (2857-Ac)-Hgl-Sni-Phe-leu-Leu-Hyp-Nml-Asp-Arg-Ile-NH2
B18: JAL-1913 (peptide)
peptide: [Occ][Sni]F[orn(Me2)]L[Hyp][NMeL][pT]RI-NH2
modifications: reading uncertain; also: printed as Occ-Sni-Phe-orn(Me2)-Leu-Hyp-Nml-Pth-Arg-Ile-NH2
B19: JAL-1900 (peptide)
peptide: H-KP[Aoc(2)][Sni]FLL[Hyp][NMeL]DRI-NH2
modifications: not fully specified (residue 6); printed as H-Lys-Pro-Hgl-Sni-Phe-leu-Leu-Hyp-Nml-Asp-Arg-Ile-NH2

Numbered stars: 1 amine (or outer) side, 2 acyl side, 3 side chain; on linkers, the order of the positions; unused ones are H or OH. Square brackets hold non-standard residues; d marks the D form. Ends that are not written are not given here. * marks the point of attachment. 2857‑Ac = 2-((2S,3R,4R,5R)-2,3,4,5,6-pentahydroxyhexylamino)acetic acid, O=C(CN(C[C@H](O)[C@@H](O)[C@H](O)[C@H](O)CO)[*:1])[*:2]; Eao = rac-1-amino-2,3-dihydro-1H-indene-1-carboxylic acid, O=C(C1(N[*:1])CCc2ccccc21)[*:2]; Sni = (S)-nipecotic acid, O=C([C@H]1CCCN([*:1])C1)[*:2]; Egg = 2-Amino-3-piperidin-4-yl-propionic acid; pT = C[C@@H](OP(=O)(O)O)[C@H](N)C(=O)O; Cya = N[C@@H](CS(=O)(=O)O)C(=O)O; Hyp = O=C(O)[C@@H]1C[C@@H](O)CN1; pS = N[C@@H](COP(=O)(O)O)C(=O)O; Aoc(2) = CCCCCC[C@H](N)C(=O)O; NMeL = CN[C@@H](CC(C)C)C(=O)O; Aic = NC1(C(=O)O)Cc2ccccc2C1; orn(Me2) = not defined here; NHexGly = CCCCCCNCC(=O)O; Octanoyl = CCCCCCCC(=O)*; 2137 = not defined here; 3816 = not defined here; dHgl = not defined here; Che = not defined here; Rni = not defined here; leu = not defined here; ppa = not defined here; Occ = octanoic acid; Dha = C=C(N)C(=O)O A value given as a limit tells only on which side of the number the result lay.

In this assay the target is T1, natriuretic peptide receptor-B. Put plainly: cell-based or functional assay.
For the molecule B1, the “EC50 group, cGMP in GTM-3 cells” value was not above 15 µM. Take B2: the “EC50 group, cGMP in GTM-3 cells” value is not above 15 µM.

As for B3, the “EC50 group, cGMP in GTM-3 cells” value is not above 5 µM. For [Occ][Rni]FGLKLDRI-NH2 (reading uncertain; also: printed as Occ-Rni-Phe-Gly-Leu-Lys-Leu-Asp-Arg-Ile-NH2) [JAL-0744] the value was not above 15 µM; for [Occ][Sni]F[leu]L[Hyp][NMeL]SRI-NH2 (reading uncertain; also: printed as Occ-Sni-Phe-leu-Leu-Hyp-Nml-Ser-Arg-Ile-NH2) [JAL-1920], not above 5 µM; for B4, not above 5 µM. Turning to B5, the “EC50 group, cGMP in GTM-3 cells” value was not above 5 µM. For B6 the value was not above 15 µM; for B7, not above 5 µM; for [Occ][Sni]F[Aic]L[Hyp][NMeL]DRI-NH2 [JAL-1893], not above 5 µM. As for B8, the “EC50 group, cGMP in GTM-3 cells” value was not above 15 µM.

On to B9, for which the “EC50 group, cGMP in GTM-3 cells” value was not above 15 µM. Take B10: the “EC50 group, cGMP in GTM-3 cells” value is not above 5 µM.

As to [Occ][Sni]F[Eao]L[Hyp][NMeL]DRI-NH2 [JAL-1892], the “EC50 group, cGMP in GTM-3 cells” value is not above 5 µM.

B11: the “EC50 group, cGMP in GTM-3 cells” value was not above 5 µM.

For B12, the “EC50 group, cGMP in GTM-3 cells” value is not above 15 µM.

On to B13, for which the “EC50 group, cGMP in GTM-3 cells” value was not above 5 µM. For [Occ][Sni]F[Egg]L[Hyp][NMeL]DRI-NH2 [JAL-1890] the value was not above 1 µM; for [Occ][Sni]F[Dha]L[Hyp][NMeL]DRI-NH2 [JAL-1915_2], not above 5 µM. For B14 the value was not above 1 µM; for [Occ][Sni]F[leu]L[Hyp][NMeL][Cya]RI-NH2 (reading uncertain; also: printed as Occ-Sni-Phe-leu-Leu-Hyp-Nml-Cya-Arg-Ile-NH2) [JAL-1922], not above 5 µM; for [Occ][Sni]F[leu]L[Hyp][NMeL][pT]R[Che] (reading uncertain; also: printed as Occ-Sni-Phe-leu-Leu-Hyp-Nml-Pth-Arg-Che) [JAL-1919], not above 5 µM.

In the case of B15, the “EC50 group, cGMP in GTM-3 cells” value is not above 5 µM. For B16 the value was not above 5 µM; for B17, not above 5 µM.

Turning to B18, the “EC50 group, cGMP in GTM-3 cells” value is not above 15 µM. For B19 the value was not above 1 µM; for [Occ][Sni]F[ppa]L[Hyp][NMeL]DRI-NH2 (reading uncertain; also: printed as Occ-Sni-Phe-ppa-Leu-Hyp-Nml-Asp-Arg-Ile-NH2) [JAL-1889], not above 5 µM.

Source of the values: US9187525B2, “Methods of treating ophthalmic diseases using NPR-B agonists” (Shire Orphan Therapies GmbH, dated 2015).
